# B1: TPR t1 (parent)
# chain: GACCAAUCUGCCCUCAGAGCUCGAGAACAUCUUCGGAUGCAGAGGAGGCAGGCUUCGGUGGCGCGAUAGCGCCAACGUCCUCAACCUCCAAUGCAUCCCACCACAUGAUGAUGCCUGAAGAGCCUUGGUUUUUUG
# Variants of: B1
# Test: polymerase ribozyme fitness, log enrichment relative to wild type (log ratio); higher = more active; in vitro selection for triplet polymerase activity
# Outline: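 Mutant libraries for each subunit of a heterodimeric triplet polymerase ribozyme were made by PCR and then transcribed. Each library underwent one round of in vitro selection in triplicate: annealing with a biotinylated primer, the partner subunit and triplets, frozen incubation at −7 °C, gel excision of extended constructs, streptavidin-bead capture and RT-PCR. Input and output libraries were Illumina-sequenced, and only genotypes with ≥10 input reads and ≥1 read per output were kept. Fitness is the logarithm, base 2, of genotype enrichment over wild-type enrichment, computed from inverse-variance-weighted replicate averages.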
row,Variant,polymerase ribozyme fitness (log ratio)
1,GACCAAUCUGCCCUCAGAGCUCGAGAACAUCUUCGGAUGCAGAGGAGGCAGGCUUCGGUGGCGCGAUAGCGCCAACGUCCUUAACCUCCAAUGCGUCCCACCACAUGAUGAUGCCUGAAGAGCCUUGGUUUUUUG [C82U A95G],0.358
2,GACCAAUCUGCCCUCAGAGCUCGAGAACAUCUUCGGAUGCAGAGGAGGCAGGCUUCGGUGGCGCGAUAGCGCCAACGUCCUAAACCUCCAAUGCAUCCCACCGCAUGAUGAUGCCUGAAGAGCCUUGGUUUUUUG [C82A A103G],-4.08
3,GACCAAUCUGCCCUCAGAGCUCGAGAACAUCUUCGGAUGCAGAGGAGGCAGGCUUCGGUGGCGCGAUAGCGCCAACGUCCACAACCUCCAAUGCAUCCCACCACACGAUAAUCUCUGAGGAGCCUUGGUUUUUUG [U81A U106C G110A G113C C114U A119G],-5.29
4,GACCAAUCUGCCCUCAGAGCUCGAGAACAUCUUCGGAUGCAGAGGAGGCAGGCUUCGGUGGCGCGAUAGCGCCAACGUCCUAAACCUCCAAUACAUCCCACCACAUGAUGAUGCCUGAAGAGCCUUGGUUUUUUG [C82A G93A],-0.17
5,GACCAAUCUGCCCUCAGAGCUCGAGAACAUCUUCGGAUGCAGAGGAGGCAGGCUUCGGUGGCGCGAUAGCGCCAACGUCCUAAACCUCCAAUGCAUCCCACCACAUGAUGAUGCCUGAAGAGCCAUGGUUUUUUG [C82A U125A],-0.778
6,GACCAAUCUGCCCUCAGAGCUCGAGAACAUCUUCGGAUGCAGAGGAGGCAGGCUUCGGUGGCGCGAUAGCGCCAACGUCCUGAAACUCCAAUGCAUCCCACCACAUGAUGGUUCCUGAAGAGCCUUGGUGUUUUG [C82G C85A A111G G113U U130G],-4.27
7,GACCAAUCUGCCCUCAGAGCUCGAGAACAUCUUCGGAUGCAGAGGAGGCAGGCUUCGGUGGCGCGAUAGCGCCAACGUCCUAAACCUCCAAUCCAUUCCACCACAUGAUGAUUCCUGAAGAGCCUUGGUUUUUUG [C82A G93C C97U G113U],-4.46
8,GACCAAUCUGCCCUCAGAGCUCGAGAACAUCUUCGGAUGCAGAGGAGGCAGGCUUCGGUGGCGCGAUAGCGCCAACGUCCUAAACCUCGAAUGCAUCCCAAAACAUGAUGACGCCUGAAGAGACUUGGUUUUUUG [C82A C89G C101A C102A U112C C123A],-6.34
9,GACCAAUCUGCCCUCAGAGCUCGAGAACAUCUUCGGAUGCAGAGGAGGCAGGCUUCGGUGGCGCGAUAGCGCCAACGUCCCAAACCUCCAAUGCAUCUCACCACAUGAUGAUGCCUGAAGAGCCUUGGUUUUUUG [U81C C82A C98U],-3.03
10,GACCAAUCUGCCCUCAGAGCUCGAGAACAUCUUCGGAUGCAGAGGAGGCAGGCUUCGGUGGCGCGAUAGCGCCAACGUCCUAAACCUCCAAUGAAUCCCACCAAAUGAUGAUGCCUGAAGAGCCUUGGUUUUUUG [C82A C94A C104A],-3.13
11,GACCAAUCUGCCCUCAGAGCUCGAGAACAUCUUCGGAUGCAGAGGAGGCAGGCUUCGGUGGCGCGAUAGCGCCAACGUCCUUUACCUCCAAUGCAUCCCACCACAUGAUGUUGCCUGAAGAGCCUUGGUUUUUUG [C82U A83U A111U],-3.12
12,GACCAAUCUGCCCUCAGAGCUCGAGAACAUCUUCGGAUGCAGAGGAGGCAGGCUUCGGUGGCGCGAUAGCGCCAACGUCCUUAACCUCCAAUGCAUCCCACCACAUGAUGAUGCAUGAAGAGCCUUGGUUUUUUG [C82U C115A],-0.595
13,GACCAAUCUGCCCUCAGAGCUCGAGAACAUCUUCGGAUGCAGAGGAGGCAGGCUUCGGUGGCGCGAUAGCGCCAACGUCCGCACCCUCCAAUGCAUCCCACCACAUGAUGAUACCUGAAGAGCCUUGGUUUUUUG [U81G A84C G113A],-3.43
14,GACCAAUCUGCCCUCAGAGCUCGAGAACAUCUUCGGAUGCAGAGGAGGCAGGCUUCGGUGGCGCGAUAGCGCCAACGUCCUAAACCUCCAAUGCAUCACACCACAUGAUGAUGUCUGAAGAGCCUUGGUUUUUUG [C82A C98A C114U],-5.87
15,GACCAAUCUGCCCUCAGAGCUCGAGAACAUCUUCGGAUGCAGAGGAGGCAGGCUUCGGUGGCGCGAUAGCGCCAACGUCCGCAACCUACAAUGCAUCCCACCACAUGAUGAUGCCUGAAGAGCCUUGGUUUUUUG [U81G C88A],-2.78
16,GACCAAUCUGCCCUCAGAGCUCGAGAACAUCUUCGGAUGCAGAGGAGGCAGGCUUCGGUGGCGCGAUAGCGCCAACGUCCGCAACCUCCAAUGCAUCCCACCACAUGAUGAUGCCUGAAGAGCCUUCGUUUUUUG [U81G G127C],-4.77
17,GACCAAUCUGCCCUCAGAGCUCGAGAACAUCUUCGGAUGCAGAGGAGGCAGGCUUCGGUGGCGCGAUAGCGCCAACGUCCUGAACCUCCAAUGCAUCCCACCACAUGAUGAUACCUGAAGAGCCUUGGUUUUUUG [C82G G113A],-1.04
18,GACCAAUCUGCCCUCAGAGCUCGAGAACAUCUUCGGAUGCAGAGGAGGCAGGCUUCGGUGGCGCGAUAGCGCCAACGUCCUAAACCUCCAAUGCAUCCCACUACAUGAUGAUGCCUGAAGAGCCUUGGUUUUUUG [C82A C102U],-1.82
19,GACCAAUCUGCCCUCAGAGCUCGAGAACAUCUUCGGAUGCAGAGGAGGCAGGCUUCGGUGGCGCGAUAGCGCCAACGUCCUAAACCUCCAAUGCAUCCCACCACAUGAUGAUGCCUGAAUAGCCUUGGUUUUUUG [C82A G120U],0.156
20,GACCAAUCUGCCCUCAGAGCUCGAGAACAUCUUCGGAUGCAGAGGAGGCAGGCUUCGGUGGCGCGAUAGCGCCAACGUCCUGAACCUCCUAUGCAUCCCACCACAUGAUGAUGCCUGAAGAGCCUUGGUUUUUUG [C82G A90U],-2.11
21,GACCAAUCUGCCCUCAGAGCUCGAGAACAUCUUCGGAUGCAGAGGAGGCAGGCUUCGGUGGCGCGAUAGCGCCAACGUCCUUAACCUCCUAUGCAUUCCACCACAUGAUGAUGCCUGGAGAGCCUUGGUUUUUUG [C82U A90U C97U A118G],-2.4

row,Variant,polymerase ribozyme fitness (log ratio)
1,GACCAAUCUGCCCUCAGAGCUCGAGAACAUCUUCGGAUGCAGAGGAGGCAGGCUUCGGUGGCGCGAUAGCGCCAACGUCCACAACCACCAAUGCAUCCCACCACAUGAUGAUGCCUGAAGAGCCUUGGUUUUUUG [U81A U87A],-1.41
2,GACCAAUCUGCCCUCAGAGCUCGAGAACAUCUUCGGAUGCAGAGGAGGCAGGCUUCGGUGGCGCGAUAGCGCCAACGUCCGCAACCUCCAAUGCAUCCCACCACAUGAUGAUGCCUGAAUAGCCUUGGUUUUUUG [U81G G120U],-3.76
3,GACCAAUCUGCCCUCAGAGCUCGAGAACAUCUUCGGAUGCAGAGGAGGCAGGCUUCGGUGGCGCGAUAGCGCCAACGUCCGCAACCUCCAAUGCAUCCCACCACAUGAUGAUGCCUGUAGAGCCUUGGUUUUUUG [U81G A118U],-2.58
4,GACCAAUCUGCCCUCAGAGCUCGAGAACAUCUUCGGAUGCAGAGGAGGCAGGCUUCGGUGGCGCGAUAGCGCCAACGUCCGCAACCUCCAAUGCAUCCCACCACAUGAUGAAGCCUGAAGAGCCUUGGUUUUUUG [U81G U112A],-4.16
5,GACCAAUCUGCCCUCAGAGCUCGAGAACAUCUUCGGAUGCAGAGGAGGCAGGCUUCGGUGGCGCGAUAGCGCCAACGUCCUGAGCCUCCAAUGCAUCCCACCACAUGAUGAUGCCUGAAGAGCCUUGGUUUUUUG [C82G A84G],-0.89
6,GACCAAUCUGCCCUCAGAGCUCGAGAACAUCUUCGGAUGCAGAGGAGGCAGGCUUCGGUGGCGCGAUAGCGCCAACGUCCUGAACCUCCAAUGCAUCCCACCACAUGAUGAUGCCUGAAGAGCCUUAGUUUUUUG [C82G G127A],-2
7,GACCAAUCUGCCCUCAGAGCUCGAGAACAUCUUCGGAUGCAGAGGAGGCAGGCUUCGGUGGCGCGAUAGCGCCAACGUCCGCAACCUCCAAUGCAUCCCACCACAUGAUGAUGCCUGAAGAUGCUUGGAUUUUUG [U81G G122U C123G U129A],-4.51
8,GACCAAUCUGCCCUCAGAGCUCGAGAACAUCUUCGGAUGCAGAGGAGGCAGGCUUCGGUGGCGCGAUAGCGCCAACGUCCACAACCUCCAAUGCAUCCCACCACAUGAUGAUGCCUGAAGAGCCUUUGUUUUUUG [U81A G127U],-2.76
9,GACCAAUCUGCCCUCAGAGCUCGAGAACAUCUUCGGAUGCAGAGGAGGCAGGCUUCGGUGGCGCGAUAGCGCCAACGUCCCCAACCUCCAAUGCAUCCCACCACAUGAUGAUGCCUGAAGAGACUUGGUUUUUUG [U81C C123A],-0.309
10,GACCAAUCUGCCCUCAGAGCUCGAGAACAUCUUCGGAUGCAGAGGAGGCAGGCUUCGGUGGCGCGAUAGCGCCAACGUCCUGAACCUCCAAUGCAUCCCACCACAUGAUGAUGCCUGAAUAGCCUUGGUUUUUUG [C82G G120U],-0.592
11,GACCAAUCUGCCCUCAGAGCUCGAGAACAUCUUCGGAUGCAGAGGAGGCAGGCUUCGGUGGCGCGAUAGCGCCAACGUCCUGAACCUCCAAUGCAUCCCACCACAUGAUGAUGCCUGAAAAGCCUUGGUUUUUUG [C82G G120A],-0.124
12,GACCAAUCUGCCCUCAGAGCUCGAGAACAUCUUCGGAUGCAGAGGAGGCAGGCUUCGGUGGCGCGAUAGCGCCAACGUCCGCAACCUCCAAUGCGUCCCACCACAUGAUGAUGCCUGAAGAGCCUUGGUUUUUUG [U81G A95G],-4.01
13,GACCAAUCUGCCCUCAGAGCUCGAGAACAUCUUCGGAUGCAGAGGAGGCAGGCUUCGGUGGCGCGAUAGCGCCAACGUCCUGAACCUCCAAUGCAUCCCAUCACAUGAUGAUGCAUGAAGAGCCAUGGUUUUUUG [C82G C101U C115A U125A],-1.73
14,GACCAAUCUGCCCUCAGAGCUCGAGAACAUCUUCGGAUGCAGAGGAGGCAGGCUUCGGUGGCGCGAUAGCGCCAACGUCCACAACCUCCAAUGCAUCCCACCACAUGAUGAAGCCUGAAGAGCCUUGGUUUUUUG [U81A U112A],0.19
15,GACCAAUCUGCCCUCAGAGCUCGAGAACAUCUUCGGAUGCAGAGGAGGCAGGCUUCGGUGGCGCGAUAGCGCCAACGUCCACAACCUCCAAUGCAUCCCACCACAUGAUGAGGCCUGAAGAGCCUUGGUUUUUUG [U81A U112G],-0.661
16,GACCAAUCUGCCCUCAGAGCUCGAGAACAUCUUCGGAUGCAGAGGAGGCAGGCUUCGGUGGCGCGAUAGCGCCAACGUCCUGAACCUCCGGUGCAUCCCAGCACAUGAUGAUGCCUGAAGAGCCUUGGUUUUUUG [C82G A90G A91G C101G],-2.95
17,GACCAAUCUGCCCUCAGAGCUCGAGAACAUCUUCGGAUGCAGAGGAGGCAGGCUUCGGUGGCGCGAUAGCGCCAACGUCCUGAACCUGCAAUGCAUCCCACCACAUGAUGAUGCCUGAAGAGCCUUGGUUUUUUG [C82G C88G],-1.26
18,GACCAAUCUGCCCUCAGAGCUCGAGAACAUCUUCGGAUGCAGAGGAGGCAGGCUUCGGUGGCGCGAUAGCGCCAACGUCCCCAACCUCCAAUACAUCCCACCACAUGAUGAUGCCUGAAGAGACUUGGUUUUUUG [U81C G93A C123A],-0.322
19,GACCAAUCUGCCCUCAGAGCUCGAGAACAUCUUCGGAUGCAGAGGAGGCAGGCUUCGGUGGCGCGAUAGCGCCAACGUCCGCAACCUCCAAUGCAUCCCACCACAUGAUGAUGCCUGAAGAGCCUUGGUUAUUUG [U81G U131A],-3.6
20,GACCAAUCUGCCCUCAGAGCUCGAGAACAUCUUCGGAUGCAGAGGAGGCAGGCUUCGGUGGCGCGAUAGCGCCAACGUCCUAAACCUCAAAUGCAUCCCACCACAUGAUGAUGCCUGAAGAGCCUUGGUUUUUUG [C82A C89A],-2.78
21,GACCAAUCUGCCCUCAGAGCUCGAGAACAUCUUCGGAUGCAGAGGAGGCAGGCUUCGGUGGCGCGAUAGCGCCAACGUCCUAAACCUCCAAUGCAUCCUACCACAUGAUGAUGCCUGAAGAGCCUUGGUUUUUUG [C82A C99U],-4.04
